Test results from publication PMC11277097, “MRAP2a Binds and Modulates Activity and Localisation of Prokineticin Receptor 1 in Zebrafish” (International Journal of Molecular Sciences, 2024).

Experiments:
[1] = biological target: the molecule itself; test: native gel or EMSA; blue native PAGE, 20 ug purified CT-MRAP2 domain on Native PAGE Novex 3% to 16% Bis-Tris gels, 0 °C; blot with anti-His
[2] = biological target: the molecule itself; test: SDS-PAGE; purified zCT-MRAP2a, electrophoresis under denaturing conditions

B1: C-terminal domain of zebrafish MRAP2a, His-tagged (zCT-MRAP2a) (domain or fragment, UniProt F8W4H9 73-217, looked up)
chain: EAAEPYEKRMRLTSCADGLGRQRETDGRTGLSRPLLEESRSLFHCYINEEEREGGRAATDAGALTHGRSGIGNSRGQVEEVGLVVQNMVLESRAEREAALLAHFNIPNFVNSELNSALGDEDLLLGDPPIIMEEARPRCTHHIID
notes: zebrafish MRAP2a, C-terminal domain, the region from residue 73 to residue 217 encoded by the third exon; cloned by PCR from plasmid XM_021473026.1 into pet28; also called zCT-MRAP2a domain; pet 28zCT-MRAP2; source: E. coli, purified (His-tagged protein purification kit)
- stoichiometry N [1]: ~2
- stoichiometry N [2]: 2
